This note sets out measurements from patent publication US20220033483A1 (GUAGNDONG FEIPENG BIOLOGICAL, published 2022).

The labels stand for the following.
B1: WT 1-4 (antibody, V domains shown)
VH: QVQLQQSGTELAKPGASVKFSCKASDYTFSTYWMYWIKQRPGQGLEWIGYINPSSGHTEYNQRFKDKATLTADKSSSTAYMQLNSLTSEDSAVYYCARKYYGPFAMDYWGQGTSVTVSS
VL: EIFLTQSPAIMSASPGEKVTMTCSASTTVSYAHWYQQKSGTSPKRWLYDSSKIASGIPVRFSGSGSGTSYSLTISSMEAEDAATYYCQNWSTNPYTFGGGTKLEIKR
B2: Mutation 1-40 (antibody, V domains shown)
VH: B1 VH with D26G, I51L, E59D, K99R, Y101F, A105G
VL: B1 VL with T27S, A32V, S50T, N89Q
B3: Mutation 1-34 (antibody, V domains shown)
VH: B1 VH with D26G, S30T, T31S, E59D, R63K, A105G
VL: B1 VL with A32V, S50T, I53L, N89Q, T92S
B4: Mutation 1-1 (antibody, V domains shown)
VH: B1 VH with D26G, S55T, E59D, R63K, K99R, A105G
VL: B1 VL with T27S, T28S, A32V, L47I, S50T, N89Q
B5: Mutation 1-22 (antibody, V domains shown)
VH: B1 VH with D26G, S30T, I51L, E59D, R63K, A105G
VL: B1 VL with A32V, S50T, I53L, N89Q, T92S, N93Q
B6: Mutation 1-24 (antibody, V domains shown)
VH: B1 VH with D26G, S55T, E59D, R63K, K99R, Y101F, A105G
VL: B1 VL with T27S, A32V, S50T, N89Q, T92S
B7: Mutation 1-9 (antibody, V domains shown)
VH: B1 VH with D26G, T31S, E59D, Y101F, A105G
VL: B1 VL with T27S, T28S, A32V, L47I, S50T, N89Q, N93Q
B8: Mutation 1-36 (antibody, V domains shown)
VH: B1 VH with D26G, E59D, K99R, Y101W, A105G
VL: B1 VL with T27S, A32V, S50T, N89Q
B9: Mutation 1-25 (antibody, V domains shown)
VH: B1 VH with D26G, T31S, E59D, K99R, A105G
VL: B1 VL with T28S, A32V, L47I, S50T, N89Q, T92S
B10: Mutation 1-44 (antibody, V domains shown)
VH: B1 VH with D26G, E59D, A105G
VL: B1 VL with T27S, T28S, A32V, L47I, S50T, N89Q
B11: Mutation 1-4 (antibody, V domains shown)
VH: B1 VH with D26G, E59D, A105G
VL: B1 VL with A32V, S50T, N89Q
B12: WT 1-1 (antibody, V domains shown)
VH: B1 VH with S55T, R63K, K99R
VL: B1 VL with T27S, T28S, L47I
B13: Mutation 1-8 (antibody, V domains shown)
VH: B1 VH with D26G, S55T, E59D, R63K, K99R, Y101W, A105G
VL: B1 VL with A32V, S50T, N89Q, N93Q
B14: Mutation 1-18 (antibody, V domains shown)
VH: B1 VH with D26G, S30T, E59D, K99R, Y101F, A105G
VL: B1 VL with A32V, S50T, I53L, N89Q, T92S, N93Q
B15: Mutation 1-10 (antibody, V domains shown)
VH: B1 VH with D26G, S30T, T31S, S55T, E59D, A105G
VL: B1 VL with T27S, A32V, S50T, I53L, N89Q, N93Q
B16: Mutation 1-54 (antibody, V domains shown)
VH: B1 VH with D26G, T31S, I51L, E59D, R63K, K99R, Y101F, A105G
VL: B1 VL with A32V, S50T, N89Q, N93Q
B17: Mutation 1-47 (antibody, V domains shown)
VH: B1 VH with D26G, S30T, I51L, S55T, E59D, R63K, K99R, A105G
VL: B1 VL with A32V, S50T, N89Q, N93Q
B18: Mutation 1-16 (antibody, V domains shown)
VH: B1 VH with D26G, E59D, R63K, A105G
VL: B1 VL with A32V, S50T, N89Q, N93Q
B19: Mutation 1-28 (antibody, V domains shown)
VH: B1 VH with D26G, I51L, S55T, E59D, A105G
VL: B1 VL with A32V, S50T, N89Q, T92S
B20: Mutation 1-53 (antibody, V domains shown)
VH: B1 VH with D26G, T31S, S55T, E59D, A105G
VL: B1 VL with A32V, L47I, S50T, I53L, N89Q
B21: Mutation 1-12 (antibody, V domains shown)
VH: B1 VH with D26G, I51L, S55T, E59D, K99R, Y101F, A105G
VL: B1 VL with A32V, S50T, N89Q, N93Q
B22: Mutation 1-55 (antibody, V domains shown)
VH: B1 VH with D26G, I51L, E59D, R63K, A105G
VL: B1 VL with A32V, L47I, S50T, I53L, N89Q
notes: T0002 combination 56 prints L/L
B23: Mutation 1-32 (antibody, V domains shown)
VH: B1 VH with D26G, I51L, E59D, Y101W, A105G
VL: B1 VL with T27S, A32V, S50T, N89Q, T92S
B24: WT 1-2 (antibody, V domains shown)
VH: B1 VH with S30T, T31S, K99R, Y101W
VL: B1 VL with T27S, I53L, T92S, N93Q

Changes are numbered by the printed parent chain.

As usually defined, the Kd is the equilibrium constant for the complex coming apart. Broadly, the koff is the rate constant with which the complex falls apart. Usually kon stands for a measure of how fast the partners come together.

T1 sequence (P19429 whole entry): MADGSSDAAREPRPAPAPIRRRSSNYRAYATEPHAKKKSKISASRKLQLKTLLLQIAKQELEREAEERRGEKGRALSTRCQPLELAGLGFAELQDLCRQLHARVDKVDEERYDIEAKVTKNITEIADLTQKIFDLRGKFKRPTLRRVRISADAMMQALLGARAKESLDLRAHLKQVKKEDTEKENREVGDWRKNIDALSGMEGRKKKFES

This experiment concerns the target T1, cTnI quality control product recombinant protein (human, UniProt P19429 1-210, limits assumed).
T1 construct: the assay paragraphs only say cTnI; also called cardiac troponin I; cTnI antigen
In words: AMC biosensor, antibody on sensor. The procedure:
Operating process: it is equilibrated in Buffer 1 (PBST) for 60 s, the antibody is immobilized in an antibody solution for 300 s, incubated in Buffer 2 (PBST) for 180 s, bound in antigen solution for 420 s, dissociated in the Buffer 2 for 1200 s, 10 mM of GLY solution with pH 1.69 and Buffer 3 are used for sensor regeneration, and data is output.
Take B1: the Kd is 31.8 nM, the koff worked out at 0.000922 s⁻¹ and the kon turned out to be 29000 M⁻¹ s⁻¹.

Take B2: the Kd turned out to be 4.16 nM, the koff was found to be 0.000138 s⁻¹ and the kon worked out at 33200 M⁻¹ s⁻¹.

As to B3, the Kd was found to be 0.404 nM and the koff came out at 1.92e-05 s⁻¹.

Turning to B4, the Kd was found to be 7.73 nM, the koff is 0.000118 s⁻¹ and the kon worked out at 15300 M⁻¹ s⁻¹.

Take B5: the Kd stood at 1.73 nM, the koff came out at 8.25e-05 s⁻¹ and the kon is 47800 M⁻¹ s⁻¹.

With B6, the Kd is 9.29 nM, the koff worked out at 0.000173 s⁻¹ and the kon worked out at 18600 M⁻¹ s⁻¹.

Consider B7, for which the Kd turned out to be 0.813 nM, the koff was found to be 2.45e-05 s⁻¹ and the kon came to 30100 M⁻¹ s⁻¹.

Take B8: the Kd was 5.49 nM, the koff was found to be 9.5e-05 s⁻¹ and the kon is 17300 M⁻¹ s⁻¹.

As to B9, the Kd stood at 1.7 nM, the koff amounted to 6.15e-05 s⁻¹ and the kon was 36200 M⁻¹ s⁻¹.

As to B10, the Kd came to 4.18 nM, the koff came to 6.9e-05 s⁻¹ and the on-rate (kon) stood at 16500 M⁻¹ s⁻¹.

On to B11, for which the Kd was 5.72 nM, the koff stood at 0.000211 s⁻¹ and the kon is 36900 M⁻¹ s⁻¹.

Consider B12, for which the dissociation constant (Kd) came to 68.4 nM, the koff amounted to 0.00165 s⁻¹ and the kon was found to be 24100 M⁻¹ s⁻¹.

With B13, the Kd turned out to be 9.35 nM, the koff was 0.000105 s⁻¹ and the kon turned out to be 11200 M⁻¹ s⁻¹.

Take B14: the Kd came to 2.3 nM, the koff was 8.41e-05 s⁻¹ and the on-rate (kon) turned out to be 36500 M⁻¹ s⁻¹.

As for B15, the Kd turned out to be 4.19 nM, the koff came to 0.000155 s⁻¹ and the kon turned out to be 37000 M⁻¹ s⁻¹.

Take B16: the Kd is 1.63 nM, the koff was 7.3e-05 s⁻¹ and the kon was 44900 M⁻¹ s⁻¹.

For the molecule B17, the Kd came out at 2.03 nM, the off-rate (koff) stood at 6.94e-05 s⁻¹ and the kon was 34100 M⁻¹ s⁻¹.

As for B18, the Kd was 1.39 nM, the koff stood at 6.64e-05 s⁻¹ and the kon was 47700 M⁻¹ s⁻¹.

B19: the Kd was found to be 0.941 nM, the koff turned out to be 1.39e-05 s⁻¹ and the kon was 14800 M⁻¹ s⁻¹.

As for B20, the equilibrium dissociation constant (Kd) was found to be 8 nM, the off-rate (koff) came to 0.0004 s⁻¹ and the kon was determined as 50000 M⁻¹ s⁻¹.

For the molecule B21, the Kd turned out to be 3.29 nM, the koff amounted to 6.88e-05 s⁻¹ and the on-rate (kon) is 20900 M⁻¹ s⁻¹.

With B22, the Kd amounted to 2.07 nM, the koff stood at 6.36e-05 s⁻¹ and the kon is 30700 M⁻¹ s⁻¹.

In the case of B23, the Kd was determined as 0.548 nM, the koff came to 1.78e-05 s⁻¹ and the kon is 32400 M⁻¹ s⁻¹.

For the molecule B24, the Kd stood at 28.5 nM, the koff came to 0.000741 s⁻¹ and the kon came out at 26000 M⁻¹ s⁻¹.
